Data published in patent US20240409645A1 (DUALYX, published 2024).

How the values were obtained:
[1] = target: T1, human common cytokine receptor γ-chain (IL-2Rγ) (human, UniProt P31785 23-262, limits assumed); test: P.E. off-rate SPR
T1 construct: Recombinant human IL-2Rγ protein, coated (ELISA) or amine-coupled to a CM5 chip (SPR); also called hu IL-2R; CD132
T1 sequence: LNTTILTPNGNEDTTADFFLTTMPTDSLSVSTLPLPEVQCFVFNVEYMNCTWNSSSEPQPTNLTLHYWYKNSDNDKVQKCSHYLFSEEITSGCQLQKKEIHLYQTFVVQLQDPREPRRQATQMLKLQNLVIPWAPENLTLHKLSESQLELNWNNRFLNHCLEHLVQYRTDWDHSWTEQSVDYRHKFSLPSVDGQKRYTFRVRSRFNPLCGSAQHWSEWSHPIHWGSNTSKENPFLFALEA
Procedure: (§1) SPR was performed to determine dissociation rates using Biacore 3000 instrument (GE Healthcare). Briefly, human and mouse IL-2R proteins were immobilized on carboxylmethyl dextran sensor chip (CM5) at approximately 2500 RUs using amine coupling in acetate buffer (GE Healthcare). The VHH-containing P.E. were loaded with a flow rate of 30 uL/min and the off-rates were measured over a 120s period.

[2] = target: T2, mouse common cytokine receptor γ-chain (IL-2Rγ) (mouse, UniProt P34902 23-263, limits assumed); test: P.E. off-rate SPR
T2 construct: Recombinant mouse IL-2Rγ protein; also called mo IL-2R; mouse IL-2R gamma
T2 sequence (looked up): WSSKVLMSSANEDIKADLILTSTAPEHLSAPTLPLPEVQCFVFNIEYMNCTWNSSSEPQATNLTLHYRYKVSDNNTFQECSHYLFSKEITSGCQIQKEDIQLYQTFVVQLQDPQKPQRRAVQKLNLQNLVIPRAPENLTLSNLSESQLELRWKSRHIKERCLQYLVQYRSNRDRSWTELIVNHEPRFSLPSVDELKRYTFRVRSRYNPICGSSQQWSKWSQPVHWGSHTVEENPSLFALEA
Procedure: as §1

[3] = target: T1, human common cytokine receptor γ-chain …; test: P.E. binding ELISA
Procedure: (§2) In a binding ELISA, human or mouse IL-2Rα, IL-2Rβ and IL-2Rγ proteins were coated directly on maxisorp microtiter plates overnight at 4° C. Free binding sites were blocked using 4% Marvel in PBS for 1 hour. Next, 1:5 dilution of P.E. in 1% Marvel/PBS were added to wells and incubated for 1 hour. […] Binding specificity was determined based on O.D. at 450 nm values compared to negative controls.

[4] = target: T2, mouse common cytokine receptor γ-chain …; test: P.E. binding ELISA
Procedure: as §2

Binder | koff [1] | koff [2] | PE binding ELISA OD [3] | PE binding ELISA OD [4]
FJ1427_P035MP07B03 (VHH, tested as periplasmic extract; also called Clone nr) VHH: EVQLVESGGGLVQAGGSLRLSCAASGRALSRLAMGWFRQAPGKEREFVVASSWGDDTFYADSVKGRFTFSRDNAKNTVYLQMNSLQPGDTAVYYCAAAPTSFATTAYSSSNSYAYWGQGTQVTVSS | 0.00278 s⁻¹ | 0.0132 s⁻¹ | 1.55 OD450 nm | 0.058 OD450 nm
FJ1427_P035MP07D09 (VHH, tested as periplasmic extract; also called Clone nr) VHH: EVQLVESGGGLVQAGGSLRLSCAASGRTLSRYAMGWFRQAPGKEREFVTANSWGGDTYYADSVQGRFTFSRDNAKNTVYLQMNSLQPEDTAVYYCAAAPTSFATTAYSSSNSYAYWGQGTQVTVSS | 0.00447 s⁻¹ | 0.126 s⁻¹ | 0.865 OD450 nm | 0.045 OD450 nm
FJ1427_P035MP07D01 (VHH, tested as periplasmic extract; also called Clone nr; 580) VHH: QVQLVESGGGLVQAGGSLRLSCAASGRTLSRYAMGWFRQAPGKEREFVAANSWGGDTYYTDSVEGRFTFSRDNAKNAVYLQMNSLQPGDTAVYYCAAAPTSFATTAYSSSNSYSYWGQGTQVTVSS | 0.00294 s⁻¹ | 0.113 s⁻¹ | 1.19 OD450 nm | 0.051 OD450 nm
FJ1427_P035MP07D05 (VHH, tested as periplasmic extract; also called Clone nr) VHH: QVQLVESGGGLVQAGGSLRLSCAASGRTLSRNAMGWFRQAPGKEREFVAADSWGGDTFYADSVEGRFTFSRDNAKNAVYLQMNSLQPEDTAVYYCAGAPTSFATTAYSSSNSYRYWGQGTQVTVSS | 0.00153 s⁻¹ | 0.0609 s⁻¹ | 0.733 OD450 nm | 0.054 OD450 nm
FJ1427_P035MP07C03 (VHH, tested as periplasmic extract; also called Clone nr) VHH: EVQLVESGGGLVQAGGSLRLSCAASGRTLSRYAMGWFRQAPGKEREFVTANSWGGDTYYADSVQGRFTFSRDNAKNTVYLQMNSLQPEDTAVYYCAAAPTSFATTAYSSSNSYAYWGQGTQVTVSS | 0.00353 s⁻¹ | 0.114 s⁻¹ | 0.982 OD450 nm | 0.046 OD450 nm
FJ1427_P035MP07C05 (VHH, tested as periplasmic extract; also called Clone nr; 611) VHH: EVQLVESGGGLVQPGGSLRLSCAASGRALSRLAMGWFRQAPGKEREFVVASSWGDDTFYADSVKGRFTFSRDNAKNTVYLQMNSLQPGDTAVYYCAAAPTSFATTAYSSSNSYAYWGQGTQVTVSS | 0.00182 s⁻¹ | 0.0128 s⁻¹ | 0.479 OD450 nm | 0.047 OD450 nm
FJ1427_P035MP07D02 (VHH, tested as periplasmic extract; also called Clone nr; 588) VHH: QVQLQESGGGLVQAGGSLRLSCAASGRALSRLAMGWFRQAPGKEREFVVASSWGDDTFYADSVKGRFTFSRDNAKNTVYLQMNSLQPGDTAVYYCAAAPTSFATTAYSSSNSYAYWGQGTQVTVSS | 0.00152 s⁻¹ | 0.0127 s⁻¹ | 0.599 OD450 nm | 0.057 OD450 nm
FJ1427_P035MP07D10 (VHH, tested as periplasmic extract; also called Clone nr) VHH: QVQLVESGGGLVQAGGSLRLSCAASGRTLSRYAMGWFRQAPGKEREFVAADSWGGDTYYDDSVEGRFTFSRDIAKNAVYLQMNSLQPEDTAVYYCAAAPTSFATTAYSSSNSYAYWGQGTQVTVSS | 0.003 s⁻¹ | 0.125 s⁻¹ | 0.734 OD450 nm | 0.048 OD450 nm
FJ1427_P035MP07C06 (VHH, tested as periplasmic extract; also called Clone nr) VHH: QVQLVESGGGLVQAGGSLRLSCAASGRTLSRYAMGWFRQAPGKEREFVTANSWGGDTYYADSVQGRFTFSRDNAENTVYLQMNSLQPEDTAVYYCAAAPTSFATTAYSSSNSYAYWGQGTQVTVSS | 0.00279 s⁻¹ | 0.111 s⁻¹ | 0.319 OD450 nm | 0.045 OD450 nm
FJ1427_P035MP07D06 (VHH, tested as periplasmic extract; also called Clone nr; 620) VHH: EVQLVESGGGLVQAGGSLRLSCAASGRTLSRYAMGWFRQAPGKEREFVTANSWGGDTYYADSVQGRFTFSRDNAKNTVYLQMNSLQPEDTAVYYCAAAPTSFATTAYSSSNSYAYWGQGTQVTVSS | 0.00288 s⁻¹ | 0.126 s⁻¹ | 0.919 OD450 nm | 0.045 OD450 nm
FJ1427_P035MP07D08 (VHH, tested as periplasmic extract; also called Clone nr) VHH: QLQLVESGGGLVQAGGSLRLSCAASGRTLSRYAMGWFRQAPGKEREFVTANSWGGDTYYADSVQGRFTFSRDNAKNTVYLQMNSLQPEDTAVYYCAAAPTSFATTAYSSSNSYAYWGQGTQVTVSS | 0.00263 s⁻¹ | 0.0991 s⁻¹ | 1.03 OD450 nm | 0.05 OD450 nm
FJ1427_P035MP07C01 (VHH, tested as periplasmic extract; also called Clone nr) VHH: QVQLVESGGGLVQAGDSLRLSCVASGRTLSRCAMGWFRKAPGKEREYVAISSWGGDTFYEDSVEGRFTFSRDNAKNTVYLQMNSLRPEDTAVYYCAAAPTSFATTAYSSSNSYAYWGQGTQVTVSS | 0.00113 s⁻¹ | 0.00694 s⁻¹ | 0.945 OD450 nm | 0.923 OD450 nm
FJ1427_P035MP07B08 (VHH, tested as periplasmic extract; also called Clone nr; 634) VHH: EVQLVESGGGSVQPGGSLRLSCAASGRTLSRYAMGWFRQAPGKEREFVTANSWGGDTYYADSVQGRFTFSRDNAKNTVYLQMNSLQPEDTAVYYCAAAPTSFATTAYSSSNSYAYWGQGTQVTVSS | 0.00326 s⁻¹ | 0.144 s⁻¹ | 0.425 OD450 nm | 0.044 OD450 nm
FJ1427_P035MP07B09 (VHH, tested as periplasmic extract; also called Clone nr) VHH: QVQLVESGGGLVQAGGSLRLSCAASGRALSRLAMGWFRQAPGKEREFVVASSWGDDTFYADSVKGRFTFSRDNAKNTVYLQMNSLQPGDTAVYYCAAAPTSFATTAYSSSNSYAYWGQGTQVTVSS | 0.00168 s⁻¹ | 0.0127 s⁻¹ | 1.27 OD450 nm | 0.082 OD450 nm
FJ1427_P035MP07B11 (VHH, tested as periplasmic extract; also called Clone nr) VHH: QVQLVESGGGLVQAGGSLRLSCAASGRALSRLAMGWFRQAPGKEREFVVASSWGDDTFYADSVEGRFTFSRDNAKSTVYLQMNSLQPGDTAVYYCAAAPTSFATTAYSSSNSYAYWGQGTQVTVPS | 0.00214 s⁻¹ | 0.0114 s⁻¹ | 1.25 OD450 nm | 0.246 OD450 nm
FJ1427_P035MP07B04 (VHH, tested as periplasmic extract; also called Clone nr; 602) VHH: EVQLVESGGGLVQAGGSLRLSCAASGRTLSRYAMGWFRQAPGKEREFVTANSWGGDTYYADSVQGRFTFSRDNAKNTVYLQMNSLQPEDTAVYYCAAAPTSFATTAYSSSNSYAYWGQGTQVTVSS | 0.00277 s⁻¹ | 0.114 s⁻¹ | 0.97 OD450 nm | 0.047 OD450 nm
FJ1427_P035MP07C09 (VHH, tested as periplasmic extract; also called Clone nr; 643) VHH: QVQLVESGGGLVQAGGSLRLSCAASGRTLSRYAMGWFRQAPGKEREYVAIDSWGGDTFYADSVEGRFTFSRDNAKNEVYLQMNSLQPEDTAVYYCAGAPTSFATTAYSSSNSYRYWGQGTQVTVSS | 0.00137 s⁻¹ | 0.00703 s⁻¹ | 0.723 OD450 nm | 0.755 OD450 nm
FJ1427_P035MP07B10 (VHH, tested as periplasmic extract; also called Clone nr; 650) VHH: QVQLVESGGGLVQAGGSLRLSCAASGRTLSRYAMGWFRQAPGKEREFVAADSWGGDTFYADSVEGRFTFSRDNAKNAAYLQMNSLQPEDTATYYCAGAPTSFATTAYSSSNSYRYWGQGTQVTVSS | 0.00175 s⁻¹ | 0.0501 s⁻¹ | 0.716 OD450 nm | 0.059 OD450 nm
FJ1427_P035MP07B06 (VHH, tested as periplasmic extract; also called Clone nr; 618) VHH: EVQLVESGGGLVQAGGSLRLSCAASGRTLSRYAMGWFRQAPGKEREFVTANSWGGDTYYADSVQGRFTFSRDNAKNTVYLQMNSLQPEDTAVYYCAAAPTSFATTAYSSSNSYAYWGQGTQVTVSS | 0.00322 s⁻¹ | 0.112 s⁻¹ | 0.902 OD450 nm | 0.045 OD450 nm
